# According to patent publication US20200009222A1, “[…] ACTIVE COMPLEXES” (HAMLET PHARMA AB, priority 2016, published 2020):
# B1: HAMLET (protein)
# chain: KQFTKCELSQLLKDIDGYGGIALPELICTMFHTSGYDTQAIVENNESTEYGLFQISNKLWCKSSQVPQSRNICDISCDKFLDDDITDDIMCAKKILDIKGIDYWLAHKALCTEKLEQWLCEKL
# Assays:
# [1] = system: adherent lung carcinoma cells (A549); experiment: Live cell imaging of Alexa-Fluor labeled HAMLET uptake; assay type: cell-based, human; settings: 35 μM, 1 hour
# Procedure: For uptake experiments lung carcinoma cells were treated with Alexa-488 or 568 labeled HAMLET, washed and visualized under confocal microscope live. Localization of HAMLET in lysosomes was detected by pre-labelling the cells with lysotracker (LysoTracker Green DND-26, Thermo Fisher). For peptide or peptide-oleate complexes uptake, lung carcinoma cells were treated with individual biotinylated peptide alone or mixed with sodium oleate. Cells were fixed (2% PFA, 10 min), permeabilized (0.25% Triton X-100) and blocked with FCS (10% in PBS). The biotinylated peptides were detected with Alexa-488 or 568 labeled streptavidin conjugate (1:200, 5% FCS/PBS, 1 hour). The accumulation of peptide or peptide oleate complexes in lysosomes was investigated by treatment of lung carcinoma cells with Alexa-568 labeled peptide (20%) or peptide-oleate complexes for 1 hour. Cells were counter stained with lysosomal marker, Lysotracker. Slides were examined using LSM 510 META or LSM 800 laser scanning confocal microscope (Carl Zeiss).
# During live cell imaging of Alexa-Fluor labeled HAMLET (35 μM, 1 hour) and adherent lung carcinoma cells (A549), two distinct cellular staining patterns (FIG. 1a) were detected. […] Nuclear speckles reside in the inter-chromatin space of eukaryotic nuclei and serve as important nodes in the splicing of pre-mRNA and transport of spliced RNA. […]
# [2] = system: Protein kinase C (PKC) isoforms; experiment: Kinex KAM-850 phospho-antibody array; assay type: cell-based, human; settings: 1 hour, 21 uM
# Procedure: The in vivo kinase activity assay was performed using Kinex™ KAM-850 Antibody Microarray Services (Kinexus, Canada). Untreated and HAMLET-treated samples were performed in duplicates. Raw quantification data and basic analyses for individual samples were provided. Reference data, consolidated data of over 200 samples was also provided as reference, confirming the validity of the assay performed. Targets with percent fold change over control>10 were significant. The targets were identified in the human profiling human activity-based phosphorylation network (Molecular Systems Biology 9:655).
# [3] = system: PKC isoforms; experiment: ProtoArray Human Protein Microarray interaction profiling; assay type: binding; settings: screen of 8000 human proteins
# Procedure: (§1) ProtoArray® Human Protein Microarray version 4.0 (Invitrogen) was performed as previously described^20, which consists of approximately 8,000 human proteins. AlexaFluor®568-labeled HAMLET was added to protein arrays at two concentrations (5 and 50 ng/μl) in duplicate, and the fluorescence was measured by using GenePix 6.0. Negative control array was incubated with buffer alone and scanned at a wavelength of 532 nm. […] The interactions were quantified as fold change (FCs) over the average negative control value.
# [4] = system: histone H3; experiment: as above; assay type: binding; settings: screen of 8000 human proteins
# Procedure: as §1
# [5] = system: MB49 bladder tumor; experiment: Real-time in vivo fluorescence imaging and tissue uptake of labeled complex; settings: tumor-bearing mice; intravesical; 24 hours
# Procedure: HAMLET or peptides were labeled using VivoTag 680XL Protein Labeling Kit (Perkin Elmer). Mice were anaesthetized using Isofluorane and 100 ul solution of labeled HAMLET or peptide was instilled in bladders of tumor bearing or healthy control mice.
# Hair was removed from the ventral sides of anesthetized mice. Mice were imaged at various time points using an IVIS Spectrum imaging system (Perkin Elmer). Signals from HAMLET or peptides were acquired at fluorescent settings with 680 nm excitation. For tissue specific uptake, Alexa-568 labeled peptide was instilled in bladders of tumor bearing or healthy control mice. Mice were sacrificed after 24 hours of treatment and bladder sections were imaged using Zeiss AX10 fluorescence microscope.
# The retention of alpha-peptide oleate complexes by the tumor was visualized, by in vivo imaging in mice with palpable tumors. VivoTag 680XL labeled alpha1 peptide-oleate complexes were instilled intra-vesically on day 8 after the inoculation of MB49 cells and the fluorescence signal was monitored longitudinally, using the IVIS spectrum in vivo imaging system.
# To verify that the alpha-peptides are retained by the bladder tumor, Alexa Fluor-568 labeled alpha1 peptide-oleate complexes were instilled into the bladders of tumor bearing mice (day 8, palpable tumors).
# [6] = system: bladder cancer; settings: prior clinical study; cited from earlier work
# [7] = system: SC-35; experiment: SC-35 phosphorylation, Western blot analysis and flow cytometry; assay type: cell-based
# Procedure: Cells were grown on 6-well plates (3×10^5/well, TPP) overnight. Cells treated with HAMLET were lysed with mammalian NP-40 lysis buffer supplemented with protease and phosphatase inhibitors (both from Roche Diagnostics). […] The anti-GAPDH (1:1,000, sc-25778, Santa Cruz) and anti-Histone H3 (ab1791, Abcam) were used as loading controls. Primary antibodies followed by HRP-conjugated secondary anti-rabbit or anti-mouse antibodies (1:4000, 5% NFDM, Cell Signaling) and visualized using ECL Plus detection reagent (GE Health Care). Band intensities were quantified using the ImageJ software 1.46r (NIH).
molecule,measurement,setting,value
B1,"Population I cells (membrane blebbing, diffuse cytoplasmic staining, nuclear speckle accumulation)",[1],51%
same,"Population II cells (exclusively cytoplasmic, lysosomal uptake)",[1],47%
same,PKC isoforms with inhibited phosphorylation,[2],5/6
same,Binding to PKC isoforms in proteomic screen,[3],identified as HAMLET targets
same,Affinity for histone H3 in proteomic screen,[4],confirmed
same,"Fluorescence signal of VivoTag 680XL labeled complex, retention",[5],retention
same,Toxic effects,[6],not detected
same,Tumor response to intravesical instillations,[6],massive tumor cell exfoliation
same,SC-35 phosphorylation,[7],inhibited
